Target: T1, human carcinoembryonic antigen-related cell adhesion molecule 5 (human, UniProt P06731 35-702)
T1 sequence (looked up): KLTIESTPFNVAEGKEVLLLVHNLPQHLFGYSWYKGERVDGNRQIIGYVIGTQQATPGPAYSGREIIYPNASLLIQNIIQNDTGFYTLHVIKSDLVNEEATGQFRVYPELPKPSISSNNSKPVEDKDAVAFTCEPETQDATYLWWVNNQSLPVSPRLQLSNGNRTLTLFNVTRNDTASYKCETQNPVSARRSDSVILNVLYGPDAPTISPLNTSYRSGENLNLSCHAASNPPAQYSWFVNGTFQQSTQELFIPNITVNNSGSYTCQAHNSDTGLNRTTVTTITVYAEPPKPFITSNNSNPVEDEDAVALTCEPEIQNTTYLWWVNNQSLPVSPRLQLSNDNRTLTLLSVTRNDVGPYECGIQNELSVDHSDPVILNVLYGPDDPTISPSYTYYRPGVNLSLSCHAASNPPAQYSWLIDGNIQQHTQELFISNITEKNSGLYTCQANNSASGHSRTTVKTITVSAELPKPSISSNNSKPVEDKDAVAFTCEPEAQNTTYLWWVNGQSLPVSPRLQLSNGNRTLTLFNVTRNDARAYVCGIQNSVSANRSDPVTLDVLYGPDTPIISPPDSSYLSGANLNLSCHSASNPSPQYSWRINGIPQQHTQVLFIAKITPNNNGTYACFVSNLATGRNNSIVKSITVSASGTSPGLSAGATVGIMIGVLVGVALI
Experiment: cell-based or functional assay

| Binder | EC50 (pM) of TCB-mediated killing of LS-174T target cells co-cultured with human PBMCs (viability read-out) [pM] |
| --- | --- |
| 4N1-TA1+4O1-CEA (bispecific antibody, human IgG4 S228P, F234A L235A) chain 1: ESKYGPPCPPCPAPEAAGGPSVFLFPPKPKDTLMISRTPEVTCVVVDVSQEDPEVQFNWYVDGVEVHNAKTKPREEQFNSTYRVVSVLTVLHQDWLNGKEYKCKVSNKGLPSSIEKTISKAKGQPREPQVYTLPPCQEEMTKNQVSLWCLVKGFYPSDIAVEWESNGQPENNYKTTPPVLDSDGSFFLYSRLTVDKSRWQEGNVFSCSVMHEALHNHYTQKSLSLSLGGGGSGGGGSEVKLLESGGGLVQPKGSLKLSCAASGFTFNTYAMNWVRQAPGKGLEWVARIRSKYNNYATYYADSVKDRFTISRDDSQSILYLQMNNLKTEDTAMYYCVRHGNFGNSYVSWFAYWGQGTLVTVSSGGGGSGGGGSGGGGSQAVVTQESALTTSPGETVTLTCRSSTGAVTTSNYANWVQEKPDHLFTGLIGGTNKRAPGVPARFSGSLIGDKAALTITGAQTEDEAIYFCALWYSNLWVFGGGTKVEIKRT chain 2: ESKYGPPCPPCPAPEAAGGPSVFLFPPKPKDTLMISRTPEVTCVVVDVSQEDPEVQFNWYVDGVEVHNAKTKPREEQFNSTYRVVSVLTVLHQDWLNGKEYKCKVSNKGLPSSIEKTISKAKGQPREPQVCTLPPSQEEMTKNQVSLSCAVKGFYPSDIAVEWESNGQPENNYKTTPPVLDSDGSFFLVSRLTVDKSRWQEGNVFSCSVMHEALHNRFTQKSLSLSLGGGGSGGGGSEVQLVESGGGFVQAGESLTLSCTSSTLTFTPYRMAWYRQAPGKQRDLVADISSGDGRTTNYADFAKGRFTISRDNIKNTVFLRMTNLKPEDTAVYYCNTFVSFVGIARSWGQGTQVTVSS | 6.7 |
| TA1-4N1+CEA-4O1 (bispecific antibody, human IgG4 S228P, F234A L235A) chain 1: EVKLLESGGGLVQPKGSLKLSCAASGFTFNTYAMNWVRQAPGKGLEWVARIRSKYNNYATYYADSVKDRFTISRDDSQSILYLQMNNLKTEDTAMYYCVRHGNFGNSYVSWFAYWGQGTLVTVSSGGGGSGGGGSGGGGSQAVVTQESALTTSPGETVTLTCRSSTGAVTTSNYANWVQEKPDHLFTGLIGGTNKRAPGVPARFSGSLIGDKAALTITGAQTEDEAIYFCALWYSNLWVFGGGTKVEIKRTESKYGPPCPPCPAPEAAGGPSVFLFPPKPKDTLMISRTPEVTCVVVDVSQEDPEVQFNWYVDGVEVHNAKTKPREEQFNSTYRVVSVLTVLHQDWLNGKEYKCKVSNKGLPSSIEKTISKAKGQPREPQVYTLPPCQEEMTKNQVSLWCLVKGFYPSDIAVEWESNGQPENNYKTTPPVLDSDGSFFLYSRLTVDKSRWQEGNVFSCSVMHEALHNHYTQKSLSLSL chain 2: EVQLVESGGGFVQAGESLTLSCTSSTLTFTPYRMAWYRQAPGKQRDLVADISSGDGRTTNYADFAKGRFTISRDNIKNTVFLRMTNLKPEDTAVYYCNTFVSFVGIARSWGQGTQVTVSSESKYGPPCPPCPAPEAAGGPSVFLFPPKPKDTLMISRTPEVTCVVVDVSQEDPEVQFNWYVDGVEVHNAKTKPREEQFNSTYRVVSVLTVLHQDWLNGKEYKCKVSNKGLPSSIEKTISKAKGQPREPQVCTLPPSQEEMTKNQVSLSCAVKGFYPSDIAVEWESNGQPENNYKTTPPVLDSDGSFFLVSRLTVDKSRWQEGNVFSCSVMHEALHNRFTQKSLSLSL | 3.1 |
| CEA-4N1+TA1-4O1 (bispecific antibody, human IgG4 S228P, F234A L235A) chain 1: EVQLVESGGGFVQAGESLTLSCTSSTLTFTPYRMAWYRQAPGKQRDLVADISSGDGRTTNYADFAKGRFTISRDNIKNTVFLRMTNLKPEDTAVYYCNTFVSFVGIARSWGQGTQVTVSSESKYGPPCPPCPAPEAAGGPSVFLFPPKPKDTLMISRTPEVTCVVVDVSQEDPEVQFNWYVDGVEVHNAKTKPREEQFNSTYRVVSVLTVLHQDWLNGKEYKCKVSNKGLPSSIEKTISKAKGQPREPQVYTLPPCQEEMTKNQVSLWCLVKGFYPSDIAVEWESNGQPENNYKTTPPVLDSDGSFFLYSRLTVDKSRWQEGNVFSCSVMHEALHNHYTQKSLSLSL chain 2: EVKLLESGGGLVQPKGSLKLSCAASGFTFNTYAMNWVRQAPGKGLEWVARIRSKYNNYATYYADSVKDRFTISRDDSQSILYLQMNNLKTEDTAMYYCVRHGNFGNSYVSWFAYWGQGTLVTVSSGGGGSGGGGSGGGGSQAVVTQESALTTSPGETVTLTCRSSTGAVTTSNYANWVQEKPDHLFTGLIGGTNKRAPGVPARFSGSLIGDKAALTITGAQTEDEAIYFCALWYSNLWVFGGGTKVEIKRTESKYGPPCPPCPAPEAAGGPSVFLFPPKPKDTLMISRTPEVTCVVVDVSQEDPEVQFNWYVDGVEVHNAKTKPREEQFNSTYRVVSVLTVLHQDWLNGKEYKCKVSNKGLPSSIEKTISKAKGQPREPQVCTLPPSQEEMTKNQVSLSCAVKGFYPSDIAVEWESNGQPENNYKTTPPVLDSDGSFFLVSRLTVDKSRWQEGNVFSCSVMHEALHNRFTQKSLSLSL | 0.005 |
| CEA-4N1+4O1-TA1 (bispecific antibody, human IgG4 S228P, F234A L235A) chain 1: EVQLVESGGGFVQAGESLTLSCTSSTLTFTPYRMAWYRQAPGKQRDLVADISSGDGRTTNYADFAKGRFTISRDNIKNTVFLRMTNLKPEDTAVYYCNTFVSFVGIARSWGQGTQVTVSSESKYGPPCPPCPAPEAAGGPSVFLFPPKPKDTLMISRTPEVTCVVVDVSQEDPEVQFNWYVDGVEVHNAKTKPREEQFNSTYRVVSVLTVLHQDWLNGKEYKCKVSNKGLPSSIEKTISKAKGQPREPQVYTLPPCQEEMTKNQVSLWCLVKGFYPSDIAVEWESNGQPENNYKTTPPVLDSDGSFFLYSRLTVDKSRWQEGNVFSCSVMHEALHNHYTQKSLSLSL chain 2: ESKYGPPCPPCPAPEAAGGPSVFLFPPKPKDTLMISRTPEVTCVVVDVSQEDPEVQFNWYVDGVEVHNAKTKPREEQFNSTYRVVSVLTVLHQDWLNGKEYKCKVSNKGLPSSIEKTISKAKGQPREPQVCTLPPSQEEMTKNQVSLSCAVKGFYPSDIAVEWESNGQPENNYKTTPPVLDSDGSFFLVSRLTVDKSRWQEGNVFSCSVMHEALHNRFTQKSLSLSLGGGGSGGGGSEVKLLESGGGLVQPKGSLKLSCAASGFTFNTYAMNWVRQAPGKGLEWVARIRSKYNNYATYYADSVKDRFTISRDDSQSILYLQMNNLKTEDTAMYYCVRHGNFGNSYVSWFAYWGQGTLVTVSSGGGGSGGGGSGGGGSQAVVTQESALTTSPGETVTLTCRSSTGAVTTSNYANWVQEKPDHLFTGLIGGTNKRAPGVPARFSGSLIGDKAALTITGAQTEDEAIYFCALWYSNLWVFGGGTKVEIKRT | 9 |
| 4N1-TA1+CEA-4O1 (bispecific antibody, human IgG4 S228P, F234A L235A) chain 1: ESKYGPPCPPCPAPEAAGGPSVFLFPPKPKDTLMISRTPEVTCVVVDVSQEDPEVQFNWYVDGVEVHNAKTKPREEQFNSTYRVVSVLTVLHQDWLNGKEYKCKVSNKGLPSSIEKTISKAKGQPREPQVYTLPPCQEEMTKNQVSLWCLVKGFYPSDIAVEWESNGQPENNYKTTPPVLDSDGSFFLYSRLTVDKSRWQEGNVFSCSVMHEALHNHYTQKSLSLSLGGGGSGGGGSEVKLLESGGGLVQPKGSLKLSCAASGFTFNTYAMNWVRQAPGKGLEWVARIRSKYNNYATYYADSVKDRFTISRDDSQSILYLQMNNLKTEDTAMYYCVRHGNFGNSYVSWFAYWGQGTLVTVSSGGGGSGGGGSGGGGSQAVVTQESALTTSPGETVTLTCRSSTGAVTTSNYANWVQEKPDHLFTGLIGGTNKRAPGVPARFSGSLIGDKAALTITGAQTEDEAIYFCALWYSNLWVFGGGTKVEIKRT chain 2: EVQLVESGGGFVQAGESLTLSCTSSTLTFTPYRMAWYRQAPGKQRDLVADISSGDGRTTNYADFAKGRFTISRDNIKNTVFLRMTNLKPEDTAVYYCNTFVSFVGIARSWGQGTQVTVSSESKYGPPCPPCPAPEAAGGPSVFLFPPKPKDTLMISRTPEVTCVVVDVSQEDPEVQFNWYVDGVEVHNAKTKPREEQFNSTYRVVSVLTVLHQDWLNGKEYKCKVSNKGLPSSIEKTISKAKGQPREPQVCTLPPSQEEMTKNQVSLSCAVKGFYPSDIAVEWESNGQPENNYKTTPPVLDSDGSFFLVSRLTVDKSRWQEGNVFSCSVMHEALHNRFTQKSLSLSL | 6 |
| CEA-4N1-TA1+4O1 (bispecific antibody, human IgG4 S228P, F234A L235A) chain 1: EVQLVESGGGFVQAGESLTLSCTSSTLTFTPYRMAWYRQAPGKQRDLVADISSGDGRTTNYADFAKGRFTISRDNIKNTVFLRMTNLKPEDTAVYYCNTFVSFVGIARSWGQGTQVTVSSESKYGPPCPPCPAPEAAGGPSVFLFPPKPKDTLMISRTPEVTCVVVDVSQEDPEVQFNWYVDGVEVHNAKTKPREEQFNSTYRVVSVLTVLHQDWLNGKEYKCKVSNKGLPSSIEKTISKAKGQPREPQVYTLPPCQEEMTKNQVSLWCLVKGFYPSDIAVEWESNGQPENNYKTTPPVLDSDGSFFLYSRLTVDKSRWQEGNVFSCSVMHEALHNHYTQKSLSLSLGGGGSGGGGSEVKLLESGGGLVQPKGSLKLSCAASGFTFNTYAMNWVRQAPGKGLEWVARIRSKYNNYATYYADSVKDRFTISRDDSQSILYLQMNNLKTEDTAMYYCVRHGNFGNSYVSWFAYWGQGTLVTVSSGGGGSGGGGSGGGGSQAVVTQESALTTSPGETVTLTCRSSTGAVTTSNYANWVQEKPDHLFTGLIGGTNKRAPGVPARFSGSLIGDKAALTITGAQTEDEAIYFCALWYSNLWVFGGGTKVEIKRT chain 2: ESKYGPPCPPCPAPEAAGGPSVFLFPPKPKDTLMISRTPEVTCVVVDVSQEDPEVQFNWYVDGVEVHNAKTKPREEQFNSTYRVVSVLTVLHQDWLNGKEYKCKVSNKGLPSSIEKTISKAKGQPREPQVCTLPPSQEEMTKNQVSLSCAVKGFYPSDIAVEWESNGQPENNYKTTPPVLDSDGSFFLVSRLTVDKSRWQEGNVFSCSVMHEALHNRFTQKSLSLSL | 0.4 |

Reference: patent US20240425590A1 (VIBRANT PHARMA, published 2024)
